Laboratory results as given in patent US20030049732A1 (Human Genome Sciences, published 2003).
Changes are numbered by the printed parent chain. Numbers in names are those of the source.

B1: Caspase-9 C287S (enzyme, UniProt P55211 1-416, looked up)
chain: MDEADRRLLRRCRLRLVEELQVDQLWDALLSRELFRPHMIEDIQRAGSGSRRDQARQLIIDLETRGSQALPLFISCLEDTGQDMLASFLRTNRQAAKLSKPTLENLTPVVLRPEIRKPEVLRPETPRPVDIGSGGFGDVGALESLRGNADLAYILSMEPCGHCLIINNVNFCRESGLRTRTGSNIDCEKLRRRFSSLHFMVEVKGDLTAKKMVLALLELAQQDHGALDCCVVVILSHGCQASHLQFPGAVYGTDGCPVSVEKIVNIFNGTSCPSLGGKPKLFFIQASGGEQKDHGFEVASTSPEDESPGSNPEPDATPFQEGLRTFDQLDAISSLPTPSDIFVSYSTFPGFVSWRDPKSGSWYVETLDDIFEQWAHSEDLQSLLLRVANAVSVKGIYKQMPGCFNFLRKKLFFKTS
notes: Named only once, in the sentence on Nod1 V41Q
B2: IKKb (enzyme, UniProt O14920 1-756, looked up)
chain: MSWSPSLTTQTCGAWEMKERLGTGGFGNVIRWHNQETGEQIAIKQCRQELSPRNRERWCLEIQIMRRLTHPNVVAARDVPEGMQNLAPNDLPLLAMEYCQGGDLRKYLNQFENCCGLREGAILTLLSDIASALRYLHENRIIHRDLKPENIVLQQGEQRLIHKIIDLGYAKELDQGSLCTSFVGTLQYLAPELLEQQKYTVTVDYWSFGTLAFECITGFRPFLPNWQPVQWHSKVRQKSEVDIVVSEDLNGTVKFSSSLPYPNNLNSVLAERLEKWLQLMLMWHPRQRGTDPTYGPNGCFKALDDILNLKLVHILNMVTGTIHTYPVTEDESLQSLKARIQQDTGIPEEDQELLQEAGLALIPDKPATQCISDGKLNEGHTLDMDLVFLFDNSKITYETQISPRPQPESVSCILQEPKRNLAFFQLRKVWGQVWHSIQTLKEDCNRLQQGQRAAMMNLLRNNSCLSKMKNSMASMSQQLKAKLDFFKTSIQIDLEKYSEQTEFGITSDKLLLAWREMEQAVELCGRENEVKLLVERMMALQTDIVDLQRSPMGRKQGGTLDDLEEQARELYRRLREKPRDQRTEGDSQEMVRLLLQAIQSFEKKVRVIYTQLSKTVVCKQKALELLPKVEEVVSLMNEDEKTVVRLQEKRQKELWNLLKIACSKVRGPVSGSPDSMNASRLSQPGQLMSQPSTASNSLPEPAKKSEELVAEAHNLCTLLENAIQDTVREQDQSFTALDWSWLQTEEEEHSCLEQAS
notes: also called IKKβ
B3: NIK (enzyme, UniProt Q99558 1-947, looked up)
chain: MAVMEMACPGAPGSAVGQQKELPKAKEKTPPLGKKQSSVYKLEAVEKSPVFCGKWEILNDVITKGTAKEGSEAGPAAISIIAQAECENSQEFSPTFSERIFIAGSKQYSQSESLDQIPNNVAHATEGKMARVCWKGKRRSKARKKRKKKSSKSLAHAGVALAKPLPRTPEQESCTIPVQEDESPLGAPYVRNTPQFTKPLKEPGLGQLCFKQLGEGLRPALPRSELHKLISPLQCLNHVWKLHHPQDGGPLPLPTHPFPYSRLPHPFPFHPLQPWKPHPLESFLGKLACVDSQKPLPDPHLSKLACVDSPKPLPGPHLEPSCLSRGAHEKFSVEEYLVHALQGSVSSGQAHSLTSLAKTWAARGSRSREPSPKTEDNEGVLLTEKLKPVDYEYREEVHWATHQLRLGRGSFGEVHRMEDKQTGFQCAVKKVRLEVFRAEELMACAGLTSPRIVPLYGAVREGPWVNIFMELLEGGSLGQLVKEQGCLPEDRALYYLGQALEGLEYLHSRRILHGDVKADNVLLSSDGSHAALCDFGHAVCLQPDGLGKSLLTGDYIPGTETHMAPEVVLGRSCDAKVDVWSSCCMMLHMLNGCHPWTQFFRGPLCLKIASEPPPVREIPPSCAPLTAQAIQEGLRKEPIHRVSAAELGGKVNRALQQVGGLKSPWRGEYKEPRHPPPNQANYHQTLHAQPRELSPRAPGPRPAEETTGRAPKLQPPLPPEPPEPNKSPPLTLSKEESGMWEPLPLSSLEPAPARNPSSPERKATVPEQELQQLEIELFLNSLSQPFSLEEQEQILSCLSIDSLSLSDDSEKNPSKASQSSRDTLSSGVHSWSSQAEARSSSWNMVLARGRPTDTPSYFNGVKVQIQSLNGEHLHIREFHRVKVGDIATGISSQIPAAAFSLVTKDGQPVRYDMEVPDSGIDLQCTLAPDGSFAWSWRVKHGQLENRP
notes: also called N1K
B4: IKKa (enzyme, UniProt O15111 1-745, looked up)
chain: MERPPGLRPGAGGPWEMRERLGTGGFGNVCLYQHRELDLKIAIKSCRLELSTKNRERWCHEIQIMKKLNHANVVKACDVPEELNILIHDVPLLAMEYCSGGDLRKLLNKPENCCGLKESQILSLLSDIGSGIRYLHENKIIHRDLKPENIVLQDVGGKIIHKIIDLGYAKDVDQGSLCTSFVGTLQYLAPELFENKPYTATVDYWSFGTMVFECIAGYRPFLHHLQPFTWHEKIKKKDPKCIFACEEMSGEVRFSSHLPQPNSLCSLVVEPMENWLQLMLNWDPQQRGGPVDLTLKQPRCFVLMDHILNLKIVHILNMTSAKIISFLLPPDESLHSLQSRIERETGINTGSQELLSETGISLDPRKPASQCVLDGVRGCDSYMVYLFDKSKTVYEGPFASRSLSDCVNYIVQDSKIQLPIIQLRKVWAEAVHYVSGLKEDYSRLFQGQRAAMLSLLRYNANLTKMKNTLISASQQLKAKLEFFHKSIQLDLERYSEQMTYGISSEKMLKAWKEMEEKAIHYAEVGVIGYLEDQIMSLHAEIMELQKSPYGRRQGDLMESLEQRAIDLYKQLKHRPSDHSYSDSTEMVKIIVHTVQSQDRVLKELFGHLSKLLGCKQKIIDLLPKVEVALSNIKEADNTVMFMQGKRQKEIWHLLKIACTQSSARSLVGSSLEGAVTPQTSAWLPPTSAEHDHSLSCVVTPQDGETSAQMIEENLNCLGHLSTIIHEANEEQGNSMMNLDWSWLTE
notes: also called IKKα
B5: FADD (other, UniProt Q13158 1-208, looked up)
chain: MDPFLVLLHSVSSSLSSSELTELKFLCLGRVGKRKLERVQSGLDLFSMLLEQNDLEPGHTELLRELLASLRRHDLLRRVDDFEAGAAAGAAPGEEDLCAAFNVICDNVGKDWRRLARQLKVSDTKIDSIEDRYPRNLTERVRESLRIWKNTEKENATVAHLVGALRSCQMNLVADLVQEVQQARDLQNRSGAMSPMSWNSDASTSEAS

Columns and labels:
Nod1 V41Q = biological target: T1, Nod1 V41Q (human, UniProt Q9Y239 1-953); experiment: co-immunoprecipitation from co-transfected 293T cells, immunoblot
T1 construct: also called V41 Q point mutant in the CARD
T1 sequence: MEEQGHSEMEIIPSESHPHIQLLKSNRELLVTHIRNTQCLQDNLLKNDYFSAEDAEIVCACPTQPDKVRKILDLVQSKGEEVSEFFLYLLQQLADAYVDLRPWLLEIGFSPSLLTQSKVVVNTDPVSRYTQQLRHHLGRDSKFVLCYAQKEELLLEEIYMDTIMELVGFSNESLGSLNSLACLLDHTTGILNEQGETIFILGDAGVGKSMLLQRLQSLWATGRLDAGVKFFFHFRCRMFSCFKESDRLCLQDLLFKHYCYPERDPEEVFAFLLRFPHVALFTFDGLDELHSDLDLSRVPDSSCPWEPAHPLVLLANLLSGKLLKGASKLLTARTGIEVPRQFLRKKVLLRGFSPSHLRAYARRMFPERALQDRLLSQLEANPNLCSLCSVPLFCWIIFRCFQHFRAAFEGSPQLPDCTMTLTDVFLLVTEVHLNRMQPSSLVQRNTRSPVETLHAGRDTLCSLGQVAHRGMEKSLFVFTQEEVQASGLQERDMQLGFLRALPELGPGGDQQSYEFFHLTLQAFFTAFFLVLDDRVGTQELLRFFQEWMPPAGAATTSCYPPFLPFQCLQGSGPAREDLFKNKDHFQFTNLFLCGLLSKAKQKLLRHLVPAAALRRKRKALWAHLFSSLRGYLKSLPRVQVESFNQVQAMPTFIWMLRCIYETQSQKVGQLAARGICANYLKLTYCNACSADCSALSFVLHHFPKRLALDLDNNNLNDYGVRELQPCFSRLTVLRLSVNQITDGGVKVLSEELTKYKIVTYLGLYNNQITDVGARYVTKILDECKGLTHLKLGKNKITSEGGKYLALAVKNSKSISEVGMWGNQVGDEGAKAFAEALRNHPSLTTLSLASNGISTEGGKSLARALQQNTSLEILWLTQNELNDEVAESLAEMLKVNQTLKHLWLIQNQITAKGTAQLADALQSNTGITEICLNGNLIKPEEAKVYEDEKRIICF
From the text: Both Ced-4 and Apaf-1 associate with their target caspases via their corresponding CARDs (Zou et al., Cell, 90:405 (1997); Hu et al., Proc. Natl. Acad. Sci. USA, 95:4386 (1998); ); Chinnaiyan et al., Nature, 388:728 (1997); Hu et al., Proc. Natl. Acad. Sci. USA, 95:4386 (1998); Srinivasula et al., Mol. Cell, 1:946 (1998); Chaudhary et al., J. Biol. Chem., 273:17708 (1998); Yang et al., Science, 281:1355 (1998)).

Nod1 = biological target: T2, Nod1 (human, UniProt Q9Y239 1-953); experiment: co-immunoprecipitation, tagged proteins transiently expressed in 293T cells
T2 construct: also called wild-type Nod1; WT Nod1
T2 sequence: T1 sequence with Q41V
From the text: The CARD and its structurally related death effector domain (DED) are peptide motifs that mediate interactions between apoptosis-regulatory proteins (Science 281:1301 (1998); Hofmann et al., Trends Biochem. Sci. 22:155 (1998)).

| Binder | binding result (Nod1 V41Q) | binding result (Nod1) |
| --- | --- | --- |
| B1 | no binding | – |
| B2 | – | no binding |
| B3 | – | no binding |
| B4 | – | no binding |
| B5 | – | no binding |
